{
  "source": "paper PMC2820149",
  "about": "(Journal of the American Chemical Society, 2010)",
  "key": {"[1]": {"tested_on": "Pa0142 homologue (gi|44264246)"}, "[2]": {"substrate": "Nc1nccc(O)n1", "experiment": "coupled ammonia assay", "assay_type": "biochemical, Pseudomonas aeruginosa", "settings": "pH 8.0, 30 °C"}, "[3]": {"substrate": "Nc1nc2nc[nH]c2c(=O)[nH]1", "experiment": "coupled ammonia assay", "assay_type": "biochemical, Pseudomonas aeruginosa", "settings": "pH 8.0, 30 °C"}, "[4]": {"substrate": "Nc1nc2nc[nH]c2c(=O)[nH]1", "experiment": "deamination kinetics", "assay_type": "biochemical, Pseudomonas aeruginosa"}, "[5]": {"substrate": "Nc1nc2nc[nH]c2c(=O)[nH]1", "experiment": "deamination kinetics", "assay_type": "biochemical, Escherichia coli"}},
  "data": [
    {"molecule": "Nc1nc2[nH]cnc2c(=O)[nH]1", "note": "[compound 2, guanine]", "values": [
      {"measurement": "Km", "setting": "[1]", "result": "1000 ± 100", "unit": "µM"}
    ]},
    {"molecule": "Nc1nccc(=O)[nH]1", "note": "[compound 3, isocytosine]", "values": [
      {"measurement": "Km", "setting": "[1]", "result": "1600 ± 200", "unit": "µM"}
    ]},
    {"molecule": "Pa0142 (Pseudomonas aeruginosa PAO1) (protein) MSRTWIRNPLAIFTANGLDAAGGLVVEDGRIVELLGAGQQPAQPCASQFDASRHVVLPGLVNTHHHFYQTLTRAWAPVVNQPLFPWLKTLYPVWARLTPEKLELATKVALAELLLSGCTTAADHHYLFPGGLEQAIDVQAGVVEELGMRAMLTRGSMSLGEKDGGLPPQQTVQEAETILADSERLIARYHQRGDGARVQIALAPCSPFSVTPEIMRASAEVAARHDVRLHTHLAETLDEEDFCLQRFGLRTVDYLDSVGWLGPRTWLAHGIHFNAEEIRRLGEAGTGICHCPSSNMRLASGICPTVELEAAGAPIGLGVDGSASNDASNMILEARQALYLQRLRYGAERITPELALGWATRGSARLLGRSDIGELAPGKQADLALFKLDELRFSGSHDPLSALLLCAADRADRVMVGGAWRVVDGAVEGLDLAALIARHRAAASALIAG", "values": [
      {"measurement": "Km", "setting": "[2]", "result": "1800 ± 100", "unit": "µM"},
      {"measurement": "kcat", "setting": "[2]", "result": "3.9 ± 0.1", "unit": "s⁻¹"},
      {"measurement": "Km", "setting": "[3]", "result": "2600 ± 600", "unit": "µM"},
      {"measurement": "kcat", "setting": "[3]", "result": "3.3 ± 0.6", "unit": "s⁻¹"}
    ]},
    {"molecule": "Pa0134 (Pseudomonas aeruginosa PAO1) (protein) MNDAVPAGNFVPPLILHSDHGGSAMSSSAHRGRILHFLGDPAKLGDKAWEYFEDGLLWIEHGHVRALDHATYLLPQLPADLPLEEHPQRLLLPGFVDCHVHYPQLGVIASYGTQLLDWLETHTFPAEQRFADAGYAAAQAELFLDELLRHGTTTALVFGTVHAVSAEAFFQAAQKRRLRMIAGKVLMDRNAPPALCDTAASGYAESRALIERWHGNGRLQYAVTPRFAPTSSPEQLAAAARLLDEYPGVYLHTHLSENLKEVAWVGELFPQAQDYLDVYHRAGLVGERSVFAHGIHLSERECRCLAHKNAALAHCPSSNLFIGSGLFDLGRAQQYGIRVGIGSDVGGGTSLSLLANLADAYKIQQLRGTSLDPFQALYLATLGGARALDLDGLVGNFLPGREADFVALDLAATPMIAQRMEHARGLADTLFVLNTLGDDRAVAETWVMGERRHVKG", "values": [
      {"measurement": "Km", "setting": "[4]", "result": "500 ± 90", "unit": "µM"},
      {"measurement": "kcat", "setting": "[4]", "result": "21 ± 2", "unit": "s⁻¹"}
    ]},
    {"molecule": "b2883 (Escherichia coli K-12) (protein) MMSGEHTLKAVRGSFIDVTRTIDNPEEIASALRFIEDGLLLIKQGKVEWFGEWENGKHQIPDTIRVRDYRGKLIVPGFVDTHIHYPQSEMVGAYGEQLLEWLNKHTFPTERRYEDLEYAREMSAFFIKQLLRNGTTTALVFGTVHPQSVDALFEAASHINMRMIAGKVMMDRNAPDYLLDTAESSYHQSKELIERWHKNGRLLYAITPRFAPTSSPEQMAMAQRLKEEYPDTWVHTHLCENKDEIAWVKSLYPDHDGYLDVYHQYGLTGKNCVFAHCVHLEEKEWDRLSETKSSIAFCPTSNLYLGSGLFNLKKAWQKKVKVGMGTDIGAGTTFNMLQTLNEAYKVLQLQGYRLSAYEAFYLATLGGAKSLGLDDLIGNFLPGKEADFVVMEPTATPLQQLRYDNSVSLVDKLFVMMTLGDDRSIYRTYVDGRLVYERN", "values": [
      {"measurement": "Km", "setting": "[5]", "result": "150 ± 10", "unit": "µM"},
      {"measurement": "kcat", "setting": "[5]", "result": "12.5 ± 0.2", "unit": "s⁻¹"}
    ]}
  ]
}
